For four molecules, binding result and Kd results are on record in paper PMC3964825.

A word on the Kd: it is the concentration at which binding is half-saturated. Low readings indicate higher affinity, high ones lower affinity.

Some targets named below: LSD1 (UniProt O60341 1-852); EZH2-EED (UniProt Q15910;O75530 1-746;1-441); PRC2 3m (EZH2-EED-SUZ12) (UniProt Q15910;O75530;Q15022 1-746;1-441;1-739).
Holding throughout (assay): EMSA

EZH2-EED, sequence (Q15910 whole entry, chain 1 of 2): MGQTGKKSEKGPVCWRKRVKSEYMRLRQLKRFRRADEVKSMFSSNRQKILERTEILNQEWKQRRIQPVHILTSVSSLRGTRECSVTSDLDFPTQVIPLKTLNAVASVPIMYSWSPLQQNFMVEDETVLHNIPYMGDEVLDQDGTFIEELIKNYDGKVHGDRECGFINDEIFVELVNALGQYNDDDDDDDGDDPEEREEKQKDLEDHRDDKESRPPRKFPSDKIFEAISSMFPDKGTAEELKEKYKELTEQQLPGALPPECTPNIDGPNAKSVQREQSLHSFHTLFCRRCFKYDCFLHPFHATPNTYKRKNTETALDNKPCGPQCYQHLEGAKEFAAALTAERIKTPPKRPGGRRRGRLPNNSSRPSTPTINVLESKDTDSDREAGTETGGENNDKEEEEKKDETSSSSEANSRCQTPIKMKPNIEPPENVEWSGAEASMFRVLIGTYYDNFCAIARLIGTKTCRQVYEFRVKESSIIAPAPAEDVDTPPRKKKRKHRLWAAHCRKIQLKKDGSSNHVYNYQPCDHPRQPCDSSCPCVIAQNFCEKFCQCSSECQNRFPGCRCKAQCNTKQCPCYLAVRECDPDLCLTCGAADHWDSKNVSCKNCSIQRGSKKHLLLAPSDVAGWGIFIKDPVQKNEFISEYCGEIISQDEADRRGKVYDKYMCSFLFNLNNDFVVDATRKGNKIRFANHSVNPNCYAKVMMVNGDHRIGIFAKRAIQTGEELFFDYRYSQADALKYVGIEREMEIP
EZH2-EED, sequence (O75530 whole entry, chain 2 of 2): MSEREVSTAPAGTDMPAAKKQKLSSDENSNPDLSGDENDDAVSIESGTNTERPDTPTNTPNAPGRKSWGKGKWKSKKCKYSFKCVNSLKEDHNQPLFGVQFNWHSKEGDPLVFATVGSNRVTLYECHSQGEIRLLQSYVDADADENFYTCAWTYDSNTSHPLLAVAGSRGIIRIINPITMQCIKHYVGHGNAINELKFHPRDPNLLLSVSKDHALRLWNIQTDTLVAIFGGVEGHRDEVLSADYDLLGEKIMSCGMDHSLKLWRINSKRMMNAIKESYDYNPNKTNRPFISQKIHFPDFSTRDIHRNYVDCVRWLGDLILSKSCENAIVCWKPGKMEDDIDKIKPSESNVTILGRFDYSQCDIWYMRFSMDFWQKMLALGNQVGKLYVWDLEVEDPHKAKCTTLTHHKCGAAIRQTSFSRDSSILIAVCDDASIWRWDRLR
PRC2 3m (EZH2-EED-SUZ12), sequence (Q15910 whole entry, chain 1 of 3): as the sequence (Q15910 whole entry, chain 1 of 2) above
PRC2 3m (EZH2-EED-SUZ12), sequence (O75530 whole entry, chain 2 of 3): as the sequence (O75530 whole entry, chain 2 of 2) above
PRC2 3m (EZH2-EED-SUZ12), sequence (Q15022 whole entry, chain 3 of 3): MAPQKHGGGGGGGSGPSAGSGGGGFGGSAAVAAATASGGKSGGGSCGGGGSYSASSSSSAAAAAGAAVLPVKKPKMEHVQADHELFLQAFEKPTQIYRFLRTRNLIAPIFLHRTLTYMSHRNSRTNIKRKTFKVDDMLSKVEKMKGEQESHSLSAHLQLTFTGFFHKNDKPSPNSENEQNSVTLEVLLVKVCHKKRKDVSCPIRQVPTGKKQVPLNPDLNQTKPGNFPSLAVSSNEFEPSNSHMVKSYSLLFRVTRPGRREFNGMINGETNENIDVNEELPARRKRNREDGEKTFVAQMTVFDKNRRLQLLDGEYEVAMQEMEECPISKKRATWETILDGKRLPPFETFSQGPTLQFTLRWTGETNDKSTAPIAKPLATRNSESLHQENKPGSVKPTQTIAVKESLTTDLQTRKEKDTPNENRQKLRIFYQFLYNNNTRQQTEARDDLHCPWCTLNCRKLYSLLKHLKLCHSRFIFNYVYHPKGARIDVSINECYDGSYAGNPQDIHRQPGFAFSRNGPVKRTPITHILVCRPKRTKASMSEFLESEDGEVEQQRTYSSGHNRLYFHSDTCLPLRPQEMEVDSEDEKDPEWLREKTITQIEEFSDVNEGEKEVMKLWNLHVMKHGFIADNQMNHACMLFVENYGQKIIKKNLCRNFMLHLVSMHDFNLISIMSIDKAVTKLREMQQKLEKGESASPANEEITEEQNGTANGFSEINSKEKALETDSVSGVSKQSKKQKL

B1: HOTAIR 212-300 (minHOTAIR) (structured_RNA)
RNA: GGAACGGAUUUAGAAGCCUGCAGUAGGGGAGUGGGGAGUGGAGAGAGGGAGCCCAGAGUUACAGACGGCGGCGAGAGGAAGGAGGGGCGGAU
Take B1: in the series with LSD1, the binding result is recorded as “no binding”. Moreover, the dissociation constant (Kd) with EZH2-EED is 0.135 ± 0.02 µM; with PRC2 3m (EZH2-EED-SUZ12), 0.111 ± 0.01 µM.

B2: HOTAIR 1-100 (structured_RNA)
RNA: GACUCGCCUGUGCUCUGGAGCUUGAUCCGAAAGCUUCCACAGUGAGGACUGCUCCGUGGGGGUAAGAGAGCACCAGGCACUGAGGCCUGGGAGUUCCACA
As for B2, the binding result with EZH2-EED was “no binding”.

B3: HOTAIR 101-300 (structured_RNA)
RNA: GACCAACACCCCUGCUCCUGGCGGCUCCCACCCGGGGCUUAGACCCUCAGGUCCCUAAUAUCCCGGAGGUGCUCUCAAUCAGAAAGGUCCUGCUCCGCUUCGCAGUGGAAUGGAACGGAUUUAGAAGCCUGCAGUAGGGGAGUGGGGAGUGGAGAGAGGGAGCCCAGAGUUACAGACGGCGGCGAGAGGAAGGAGGGGCGGAU
The molecule B3 registered a Kd with EZH2-EED of 0.119 ± 0.018 µM.

B4: HOTAIR 201-300 (structured_RNA)
RNA: GCAGUGGAAUGGAACGGAUUUAGAAGCCUGCAGUAGGGGAGUGGGGAGUGGAGAGAGGGAGCCCAGAGUUACAGACGGCGGCGAGAGGAAGGAGGGGCGGAU
On to B4, for which, in the series with EZH2-EED, the Kd turned out to be 0.157 ± 0.012 µM. The Kd values of the last two molecules are within 1.5-fold of each other.
